Assay [1] addresses IscS^C–GFP (E. coli K-12) (UniProt P0A6B7). Description: split reporter (BiFC, NanoBiT); BiFC by reconstitution of GFP from N-GFP and C-GFP fusions co-expressed in E. coli BL21(DE3) Gold; fluorescence microscopy of cells on agarose slides, normalised to empty vectors.
Assay [2] has as its target IscU^N–GFP (E. coli K-12) (UniProt P0ACD4). The description is as above.

This is an account of results in PMC8117158.

UniProt P0ACD4, sequence (P0ACD4 whole entry): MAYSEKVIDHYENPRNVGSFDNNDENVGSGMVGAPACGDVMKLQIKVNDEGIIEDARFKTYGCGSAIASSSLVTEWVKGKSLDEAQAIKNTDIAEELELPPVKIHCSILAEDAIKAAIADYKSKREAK
UniProt P0A6B7, sequence (P0A6B7 whole entry, the tested form may be a part): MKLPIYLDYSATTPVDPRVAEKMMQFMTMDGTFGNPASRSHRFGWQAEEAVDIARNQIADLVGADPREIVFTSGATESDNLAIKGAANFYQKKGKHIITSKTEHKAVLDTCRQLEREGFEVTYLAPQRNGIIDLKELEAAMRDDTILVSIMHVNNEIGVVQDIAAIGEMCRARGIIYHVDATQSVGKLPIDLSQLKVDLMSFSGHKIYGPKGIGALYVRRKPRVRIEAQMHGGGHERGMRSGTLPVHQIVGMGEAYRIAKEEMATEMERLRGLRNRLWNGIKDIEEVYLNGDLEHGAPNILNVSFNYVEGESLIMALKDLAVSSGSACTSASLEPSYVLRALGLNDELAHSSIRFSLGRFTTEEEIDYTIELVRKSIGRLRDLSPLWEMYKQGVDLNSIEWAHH

In turn, “YtfE^N–GFP (from UniProt P69506 1-220) (natural protein)” came in with a fold fluorescence over the control in assay [1] of 6 fold. In turn, “YtfE^C–GFP (from UniProt P69506 1-220) (natural protein)” came in with a fold fluorescence over the control in assay [2] of 3 fold.
